Source: the RNAGym collection of RNA variant scans (doi:10.7554/elife.80360)

B1: Hairpin Ribozyme (parent)
chain: GUCCUCUUUCACGUGCGCGUGAAAGAGAGAAGUGAACCAGAGAAACACACGUUGUGGUAUAUUACCUGGUA

Variants of: B1
Assay: self-cleavage, relative activity (ratio to wild type); higher = more cleavage; co-transcriptional

Row | Variant | self-cleavage
1 | A23U A24C | 1.02
2 | G25A G57U | 0.113
3 | G25A A47U | 0.108
4 | G25A U60C | 0.976
5 | G25A U60A | 0.626
6 | A23U G69A | 0.335
7 | A23U G69C | 0.325
8 | A23C G68A | 0.26
9 | A24U U70A | 0.877
10 | A24U U70C | 0.743
11 | A24U U70G | 0.533
12 | A24C A59C | 0.209
13 | A23U U52A | 0.947
14 | A23U U52C | 0.677
15 | A24G U62A | 0.316
16 | A23G A39U | 0.252
17 | A23G A39C | 0.408
18 | A23G A39G | 0.353
19 | G25A A36C | 0.301
20 | G25A A36G | 0.605
21 | A24G G69C | 0.238
22 | G25C A31G | 0.153
23 | A23C U62A | 0.229
24 | A23C U58G | 0.674

Row | Variant | self-cleavage
25 | A24C A30U | 0.146
26 | A24C A30C | 0.242
27 | G25A A35U | 0.39
28 | G25A A35G | 0.738
29 | A24G U58A | 0.628
30 | A24G U58G | 0.517
31 | A24G U58C | 0.804
32 | A23U A39U | 0.385
33 | A23U A39G | 0.298
34 | A24U A45C | 0.179
35 | A24C C48G | 0.133
36 | G25C A43G | 0.116
37 | A24G G34A | 0.862
38 | A24G G34C | 1.34
39 | A24G G34U | 0.956
40 | A24G C37U | 0.294
41 | A24G C37A | 0.345
42 | A24G C37G | 0.359
43 | A23U G27C | 0.148
44 | A24G G54A | 0.387
45 | A24G G54U | 0.607
46 | A23U A35G | 0.967
47 | A23U A35C | 0.848
48 | G25C A49C | 0.136

Row | Variant | self-cleavage
49 | A24G U53G | 0.591
50 | A23G A43G | 0.0591
51 | A23G A43U | 0.184
52 | G25C A71C | 1.02
53 | A23C U70C | 1.06
54 | A23G A59G | 0.184
55 | A24U C50U | 0.307
56 | A24G U67C | 0.222
57 | A24G U67G | 0.263
58 | A23C G51C | 0.804
59 | A24C U52C | 0.872
60 | A24U G69U | 0.192
61 | A24G A71G | 1.07
62 | A24G A71U | 0.667
63 | A24G C48A | 0.191
64 | A24C G29U | 0.0732
65 | A24C G29A | 0.0206
66 | A24C G29C | 0.208
67 | A24G G27U | 0.303
68 | A24U C37G | 0.292
69 | A24U C37U | 0.734
70 | A24G A39U | 0.473
71 | A23G A44U | 0.0965
72 | A24U G29C | 0.115

Row | Variant | self-cleavage
73 | A23G A71U | 0.634
74 | A23G A71G | 0.975
75 | G25A A31U | 0.0553
76 | A24G U70G | 0.834
77 | A24C A41C | 1.01
78 | A24C A41U | 0.996
79 | G25A G56C | 0.117
80 | G25A G56A | 0.105
81 | G25A A45G | 0.24
82 | A23C U67G | 0.27
83 | G25A U70A | 0.519
84 | A23G C38G | 0.186
85 | A24C U55G | 0.266
86 | A23U G32C | 0.231
87 | A23C U53A | 0.757
88 | A24G A36U | 0.397
89 | A24U U60G | 0.531
90 | A24U U60A | 0.57
91 | A23G A24U | 0.651
92 | A23G A24C | 0.648
93 | A24C U33G | 0.152
94 | A23U G57U | 0.307
95 | A23U G57C | 0.211
96 | A24C U58G | 0.761

Row | Variant | self-cleavage
97 | A24C U58A | 0.265
98 | A24G A59U | 0.153
99 | A24G A59C | 0.213
100 | A23U G34U | 1.34
101 | G25A C46G | 0.135
102 | A23U C66A | 0.294
103 | G25A C50U | 0.315
104 | A23U A31G | 0.805
105 | A23U A31C | 0.147
106 | A23G U52C | 0.713
107 | A23G U52A | 0.899
108 | G25A A71G | 0.66
109 | G25A A71U | 0.553
110 | A24U C66G | 0.207
111 | A24U C66A | 0.137
112 | A24U C66U | 0.412
113 | G25A A49C | 0.232
114 | A24C G68C | 0.255
115 | A24C G68U | 0.223
116 | A24G U52C | 0.762
117 | A24G U52G | 0.687
118 | A24U U33G | 0.135
119 | A24U U33A | 0.11
120 | G25A U55A | 0.149

Row | Variant | self-cleavage
121 | A24U A36C | 0.517
122 | A24C U53C | 0.735
123 | A24C U53A | 1.08
124 | A23C G57C | 0.192
125 | A23C G57U | 0.29
126 | A24U A61G | 0.231
127 | A24G A61C | 0.203
128 | A24G C38U | 0.31
129 | A24C A64G | 0.503
130 | A24U G54U | 0.476
131 | A23G G27U | 0.254
132 | G25A G27C | 0.155
133 | G25C A61G | 0.115
134 | A24G A30C | 0.119
135 | A24G A30U | 0.124
136 | A24C G27C | 0.228
137 | A23G G34U | 1.29
138 | G25A A26G | 0.298
139 | G25A A26C | 0.124
140 | A24U A59C | 0.139
141 | A24C A26C | 0.338
142 | A24C A26G | 0.835
143 | A24C A26U | 0.463
144 | G25A G34C | 1.34

Row | Variant | self-cleavage
145 | A23U A30U | 0.0692
146 | G25C A28U | 0.327
147 | A23G G51U | 1.01
148 | G25C A30G | 0.157
149 | G25C A30C | 0.21
150 | G25C A30U | 0.116
151 | A24G G25C | 0.668
152 | A24G G25A | 0.591
153 | G25A A28G | 0.849
154 | A23C G56U | 0.1
155 | A23G G54A | 0.489
156 | G25A A41C | 0.814
157 | G25A A41U | 0.85
158 | A24G A43C | 0.19
159 | A24G A43U | 0.104
160 | A23G C37U | 0.466
161 | A23C U52A | 0.875
162 | A23G G57U | 0.142
163 | A23U A43C | 0.141
164 | A24G G57U | 0.307
165 | A24G C65G | 0.296
166 | A23G G40C | 0.16
167 | A24C G57C | 0.131
